Measured values from the supplement of paper PMC7877785.
± gives the uncertainty stated by the source.

Experiment: self-splicing fitness, log relative to wild type (ln ratio); higher = more splicing; Tetrahymena group I intron in knt gene, E. coli kanamycin selection, DiMSum; sequences stand for … in CUCUCU…GGAGGGAAAAGUUAUCAGGCAUGCACCUGGUAGCUAGUCUUUAAACCAAUAGAUUGCAUCGGUUUAAAAGGCAAGACCGUCAAAUUGCGGGAAAGGGGUCAACAGCCGUUCAGUACCAAGUCUCAGGGGAAACUUUGAGAUGGCCUUGCAAAGGGUAUGGUAAUAAGCUGACGGACAUGGUCCUAACCACGCAGCCAAGUCCUAAGUCAACAGAUCUUCUGUUGAUAUGGAUGCAGUUCACAGACUAAAUGUCGGUCGGGGAAGAUGUAUUCUUCUCAUAAGAUAUAGUCGGACCUCUCCUUAAUGGGAGCUAGCGGAUGAAGUGAUGCAACACUGGAGCCGCUGGGAACUAAUUUGUAUGCGAAAGUAUAUUGAUUAGUUUUGGAGUACUCGUGGUCG
Procedure, shortened: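 Fitness was computed with DiMSum as the error-weighted combination of replicate fold changes, kanamycin versus none, each normalised to wild type. The library randomised all eight intron nucleotides of the P1ex region, with the intron placed in the knt kanamycin-resistance gene on pET-22b(+) in E. coli BL21(DE3). Six replicate transformations were grown overnight at 37°C or 30°C on LB agar with or without 25 μg/mL kanamycin, plus 100 μg/mL carbenicillin, 50 μM IPTG and 0.2% rhamnose. Pooled colonies were amplicon-sequenced on an Illumina HiSeq 2500.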

Row | Sequence | self-splicing fitness (ln) (30 °C) | self-splicing fitness (ln) (37 °C)
1 | GUACAGCAAUAUUACGACCC | -0.186 ± 0.36 | 0.979 ± 0.36
2 | GUACAGCAAUAUUACGAGGA | -3.11 ± 0.29 | -1.88 ± 0.23
3 | GUACAGCAAUAUUACGAGUA | – | -2.65 ± 0.31
4 | GUACAGCAAUAUUACGCACC | -2.67 ± 0.26 | -2.35 ± 0.38
5 | GUACAGCAAUAUUACGCCUA | -1.06 ± 0.099 | -0.254 ± 0.09
6 | GUACAGCAAUAUUACGCUAA | -2.37 ± 0.14 | -0.948 ± 0.11
7 | GUACAGCAAUAUUACGGACG | -3.05 ± 0.14 | -0.547 ± 0.12
8 | GUACAGCAAUAUUACGGACU | -1.74 ± 0.062 | -0.781 ± 0.081
9 | GUACAGCAAUAUUACGGCGA | -1.14 ± 0.18 | -1.09 ± 0.14
10 | GUACAGCAAUAUUACGGGAU | -3.85 ± 0.15 | -2.59 ± 0.13
11 | GUACAGCAAUAUUACGGGCU | -3.98 ± 0.3 | -2.1 ± 0.21
12 | GUACAGCAAUAUUACGUAAC | -2.18 ± 0.14 | -1.11 ± 0.12
13 | GUACAGCAAUAUUACGUAUA | -1.77 ± 0.11 | -1 ± 0.12
14 | GUACAGCAAUAUUACGUCGC | -2.57 ± 0.15 | -0.812 ± 0.16
15 | GUACAGCAAUAUUACGUGGG | -3.76 ± 0.13 | -3.18 ± 0.14
16 | GUACAGCAAUAUUACGUGGU | -3.43 ± 0.16 | -2.49 ± 0.17
17 | GUACAGCAAUAUUACGUUAG | -2.37 ± 0.15 | -1.74 ± 0.17
18 | GUACAGCAAUAUUACGUUUU | -3.88 ± 0.17 | -2.72 ± 0.14
19 | GUAGAGCAAUAUUACGAACG | -2.44 ± 0.22 | -1.38 ± 0.2
20 | GUAGAGCAAUAUUACGAAUC | -1.28 ± 0.2 | -0.812 ± 0.29
21 | GUAGAGCAAUAUUACGACAC | -0.732 ± 0.15 | 0.357 ± 0.2
22 | GUAGAGCAAUAUUACGCAAU | -2.52 ± 0.11 | -0.0736 ± 0.11
23 | GUAGAGCAAUAUUACGCAGG | -1.51 ± 0.15 | -1.59 ± 0.15
24 | GUAGAGCAAUAUUACGCGGA | -1.47 ± 0.14 | -0.734 ± 0.12

Row | Sequence | self-splicing fitness (ln) (30 °C) | self-splicing fitness (ln) (37 °C)
25 | GUAGAGCAAUAUUACGCUGG | -1.56 ± 0.17 | -1.53 ± 0.24
26 | GUAGAGCAAUAUUACGCUUC | -3.16 ± 0.45 | -1.63 ± 0.27
27 | GUAGAGCAAUAUUACGGAAG | -2.83 ± 0.29 | -1.42 ± 0.4
28 | GUAGAGCAAUAUUACGGCAU | -0.0916 ± 0.085 | 0.127 ± 0.12
29 | GUAGAGCAAUAUUACGGCCU | -0.447 ± 0.11 | -0.0153 ± 0.14
30 | GUAGAGCAAUAUUACGGCUC | -1.57 ± 0.26 | -0.26 ± 0.45
31 | GUAGAGCAAUAUUACGGGGC | – | -1.52 ± 0.36
32 | GUAGAGCAAUAUUACGGGUA | -4.17 ± 0.35 | -1.75 ± 0.19
33 | GUAGAGCAAUAUUACGGUAA | -1.74 ± 0.15 | -1.3 ± 0.19
34 | GUAGAGCAAUAUUACGGUUA | -1.35 ± 0.11 | -0.0418 ± 0.13
35 | GUAGAGCAAUAUUACGUAGU | – | -0.866 ± 0.15
36 | GUAGAGCAAUAUUACGUAUA | -1.7 ± 0.28 | -0.319 ± 0.25
37 | GUAGAGCAAUAUUACGUCGG | -1.87 ± 0.15 | -1.61 ± 0.22
38 | GUAGAGCAAUAUUACGUGCA | -0.339 ± 0.11 | 0.541 ± 0.18
39 | GUAGAGCAAUAUUACGUUGC | -4.29 ± 0.3 | -3.11 ± 0.24
40 | GUAGAGCAAUAUUACGUUUC | -1.87 ± 0.15 | -0.679 ± 0.17
41 | GUAGAGCAAUAUUACGUUUG | -2.91 ± 0.24 | -2.23 ± 0.29
42 | GUAUAGCAAUAUUACGACUG | -2.88 ± 0.33 | -2.23 ± 0.33
43 | GUAUAGCAAUAUUACGAGAG | -1.56 ± 0.22 | -2.9 ± 0.34
44 | GUAUAGCAAUAUUACGAGUU | -3.29 ± 0.19 | -1.17 ± 0.14
45 | GUAUAGCAAUAUUACGCCCG | -1.63 ± 0.17 | -1.37 ± 0.23
46 | GUAUAGCAAUAUUACGGCAA | -0.453 ± 0.39 | -0.521 ± 0.35
47 | GUAUAGCAAUAUUACGGCAU | -0.587 ± 0.081 | -0.661 ± 0.1
48 | GUAUAGCAAUAUUACGGGCC | – | -1.55 ± 0.27

Row | Sequence | self-splicing fitness (ln) (30 °C) | self-splicing fitness (ln) (37 °C)
49 | GUAUAGCAAUAUUACGGGGU | -4.08 ± 0.27 | -1.4 ± 0.14
50 | GUAUAGCAAUAUUACGGUCC | -0.391 ± 0.28 | -1.19 ± 0.46
51 | GUAUAGCAAUAUUACGUAAU | -2.43 ± 0.14 | -0.699 ± 0.14
52 | GUAUAGCAAUAUUACGUCAU | -2.03 ± 0.17 | -0.747 ± 0.17
53 | GUAUAGCAAUAUUACGUGAG | -1.85 ± 0.13 | -1.42 ± 0.17
54 | GUAUAGCAAUAUUACGUGAU | -2.29 ± 0.15 | -1.71 ± 0.17
55 | GUCAAGCAAUAUUACGAGAG | -2.41 ± 0.18 | -2.31 ± 0.27
56 | GUCAAGCAAUAUUACGAUAG | -4.6 ± 0.42 | -3.02 ± 0.47
57 | GUCAAGCAAUAUUACGCCAU | -4.64 ± 0.42 | -3.01 ± 0.18
58 | GUCAAGCAAUAUUACGCCCG | -2.15 ± 0.21 | -1.11 ± 0.2
59 | GUCAAGCAAUAUUACGCGGA | -2.98 ± 0.17 | -2.02 ± 0.16
60 | GUCAAGCAAUAUUACGCGUA | -1.32 ± 0.08 | -0.362 ± 0.077
61 | GUCAAGCAAUAUUACGCUAA | -1.48 ± 0.15 | -1.45 ± 0.14
62 | GUCAAGCAAUAUUACGCUAG | -2.83 ± 0.15 | -2 ± 0.14
63 | GUCAAGCAAUAUUACGUAAA | -0.78 ± 0.058 | -0.463 ± 0.07
64 | GUCAAGCAAUAUUACGUAAC | -1.33 ± 0.17 | -0.545 ± 0.14
65 | GUCAAGCAAUAUUACGUCGU | -1.68 ± 0.066 | -0.826 ± 0.078
66 | GUCAAGCAAUAUUACGUGGU | -4.8 ± 0.3 | -3.09 ± 0.16
67 | GUCAAGCAAUAUUACGUGUC | -2.72 ± 0.13 | -1.46 ± 0.12
68 | GUCCAGCAAUAUUACGAAAC | -0.222 ± 0.15 | -0.568 ± 0.2
69 | GUCCAGCAAUAUUACGAACC | -1.97 ± 0.093 | -0.224 ± 0.11
70 | GUCCAGCAAUAUUACGAAUA | 0.0949 ± 0.13 | -0.595 ± 0.15
71 | GUCCAGCAAUAUUACGACAU | -0.524 ± 0.012 | 0.0313 ± 0.032
72 | GUCCAGCAAUAUUACGAGCG | -2.31 ± 0.14 | -0.864 ± 0.15

Row | Sequence | self-splicing fitness (ln) (30 °C) | self-splicing fitness (ln) (37 °C)
73 | GUCCAGCAAUAUUACGAUCC | -0.959 ± 0.087 | -0.16 ± 0.11
74 | GUCCAGCAAUAUUACGAUGA | -1.49 ± 0.084 | -0.996 ± 0.092
75 | GUCCAGCAAUAUUACGAUGU | -0.9 ± 0.07 | -0.235 ± 0.083
76 | GUCCAGCAAUAUUACGCAAA | -1.46 ± 0.12 | -0.457 ± 0.11
77 | GUCCAGCAAUAUUACGCAAU | -0.658 ± 0.071 | 0.419 ± 0.087
78 | GUCCAGCAAUAUUACGCAGA | -3.39 ± 0.4 | -1.87 ± 0.22
79 | GUCCAGCAAUAUUACGCCCU | -0.888 ± 0.13 | -0.617 ± 0.18
80 | GUCCAGCAAUAUUACGCCUA | -0.215 ± 0.095 | -0.244 ± 0.093
81 | GUCCAGCAAUAUUACGCGUG | -1.04 ± 0.063 | -0.469 ± 0.068
82 | GUCCAGCAAUAUUACGCUAU | -0.823 ± 0.055 | -0.104 ± 0.071
83 | GUCCAGCAAUAUUACGCUGU | -0.609 ± 0.073 | -0.386 ± 0.076
84 | GUCCAGCAAUAUUACGGAUA | -0.361 ± 0.056 | 0.0186 ± 0.063
85 | GUCCAGCAAUAUUACGGCAC | -1.17 ± 0.064 | -0.348 ± 0.092
86 | GUCCAGCAAUAUUACGGCAG | – | -2.06 ± 0.2
87 | GUCCAGCAAUAUUACGGGAC | -3.53 ± 0.2 | -2.94 ± 0.31
88 | GUCCAGCAAUAUUACGGGCG | -2.53 ± 0.12 | -0.72 ± 0.099
89 | GUCCAGCAAUAUUACGGGGA | -2.41 ± 0.13 | -1.37 ± 0.12
90 | GUCCAGCAAUAUUACGGGUG | -0.386 ± 0.052 | 0.0761 ± 0.067
91 | GUCCAGCAAUAUUACGGUCU | -2.7 ± 0.12 | -1.2 ± 0.12
92 | GUCCAGCAAUAUUACGUAGU | -0.119 ± 0.062 | 0.398 ± 0.08
93 | GUCCAGCAAUAUUACGUCCU | -1.77 ± 0.13 | -0.83 ± 0.12
94 | GUCCAGCAAUAUUACGUGCC | -1.16 ± 0.086 | -0.944 ± 0.11
95 | GUCCAGCAAUAUUACGUUGU | -0.537 ± 0.051 | 0.244 ± 0.066
96 | GUCCAGCAAUAUUACGUUUA | -0.851 ± 0.08 | -0.0697 ± 0.076
